Measured values published in patent publication US20140010756A1 (KAGOSHIMA UNIVERSITY, published 2014).

Biological target: T1, human folate receptor β (FRβ) (human, UniProt P14207 23-230)
T1 construct: Expressed on mouse B300-19 cells from cDNA cloned from human rheumatoid synovial membrane; also called human FRβ
Assay: hybridoma antibodies selected by reactivity with FRβ-expressing cells (human FRβ on mouse B300-19 cells); reactivity analysed by flow cytometry

T1 sequence (P14207 23-230 S117T limits assumed): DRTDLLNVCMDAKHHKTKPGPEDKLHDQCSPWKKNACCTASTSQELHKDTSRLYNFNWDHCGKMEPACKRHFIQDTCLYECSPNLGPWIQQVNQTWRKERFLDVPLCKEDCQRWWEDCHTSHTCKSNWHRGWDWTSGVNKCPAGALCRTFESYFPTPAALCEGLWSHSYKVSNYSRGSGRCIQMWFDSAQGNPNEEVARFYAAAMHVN

B1: anti-human FRβ mouse monoclonal antibody 36b (antibody, mouse IgG2a, V domains shown)
VH: QVQLQQSGAELMKPGASLKISCKATGYTFSSYWIEWVKQRPGHGLQWIGEILPGSGSSNYNEKFKGKATFTADTSSNTAYMQLSSLTSEDSAVYYCARRGSSGSYFAMDYWGQGTSVTVSS
VL: DIQMTQSSSSFSVSLGDRVTITCKASEDIYNRLAWYQQKPGNAPRLLISGATSLETGVPLRFSGSGSGKDYTLSITSLQTEDIATYYCQQYWSTPWTFGGGTKLEIKK
notes: also called Clone 36b
B1: binds.
